Results reported in the supplement of paper PMC9233669.
Fewer inactive variants are shown than the library holds.

Legend:
[1] = system: biotinyl-Val-oxazolone; assay: self-aminoacylation, catalytic enhancement (BVO) (fold over background); higher = more active; k-Seq, kA / k0A0; sequences stand for … in GGGAAUGGAUCCACAUCUACGAAUUC…UUCACUGCAGACUUGACGAAGCUG
Outline: (§1)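 Mutagenized RNA pools (0.43 μM; 21-nt variable region) were treated with 2–1250 μM of each biotinyl-aminoacyl-oxazolone. Conditions were 50 μL HEPES/NaCl/KCl/MgCl2/CaCl2 buffer, 5% acetonitrile, pH 6.9–7.0, room temperature, 90 minutes. Catalytic enhancement, the median kA relative to the uncatalyzed rate, was derived from streptavidin capture, qPCR and Illumina sequencing.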

[2] = system: biotinyl-Ile-oxazolone; assay: self-aminoacylation, catalytic enhancement (BIO) (fold over background); higher = more active; k-Seq, kA / k0A0; sequences stand for … in GGGAAUGGAUCCACAUCUACGAAUUC…UUCACUGCAGACUUGACGAAGCUG
Outline: as §1

[3] = system: biotinyl-Leu-oxazolone; assay: self-aminoacylation, catalytic enhancement (BLO) (fold over background); higher = more active; k-Seq, kA / k0A0; sequences stand for … in GGGAAUGGAUCCACAUCUACGAAUUC…UUCACUGCAGACUUGACGAAGCUG
Outline: as §1

[4] = system: biotinyl-Trp-oxazolone; assay: self-aminoacylation, catalytic enhancement (BWO) (fold over background); higher = more active; k-Seq, kA / k0A0; sequences stand for … in GGGAAUGGAUCCACAUCUACGAAUUC…UUCACUGCAGACUUGACGAAGCUG
Outline: as §1

[5] = system: biotinyl-Met-oxazolone; assay: self-aminoacylation, catalytic enhancement (BMO) (fold over background); higher = more active; k-Seq, kA / k0A0; sequences stand for … in GGGAAUGGAUCCACAUCUACGAAUUC…UUCACUGCAGACUUGACGAAGCUG
Outline: as §1

[6] = system: biotinyl-Phe-oxazolone; assay: self-aminoacylation, catalytic enhancement (BFO) (fold over background); higher = more active; k-Seq, kA / k0A0; sequences stand for … in GGGAAUGGAUCCACAUCUACGAAUUC…UUCACUGCAGACUUGACGAAGCUG
Outline: as §1

Row | Sequence | self-aminoacylation [1] | self-aminoacylation [2] | self-aminoacylation [3] | self-aminoacylation [4] | self-aminoacylation [5] | self-aminoacylation [6]
1 | AGUACCCUGGCCAUCGAGUGA [Fam2.1 aminoacylation ribozyme variant] | 3.11 | 2.53 | 4.09 | 4.09 | 3.41 | 10.2
2 | AGUACCCUGGUCAUCAAGUGA [Fam2.1 aminoacylation ribozyme variant] | 1.75 | 1.61 | 2.35 | 2.89 | 2.28 | 3.2
3 | AGUACCCUGGUCAUCGAGCGA [Fam2.1 aminoacylation ribozyme variant] | 1.9 | 1.94 | 2.28 | 1.89 | 2.19 | 1.16
4 | AGUACCCUGGUCAUCGAUUGA [Fam2.1 aminoacylation ribozyme variant] | 0.981 | 1.09 | 1.07 | 1.58 | 0.999 | 1.09
5 | AGUACCCUGGUCAUCGGGUGA [Fam2.1 aminoacylation ribozyme variant] | 9.99 | 9.32 | 19 | 19.6 | 17.7 | 82.1
6 | AGUACCCUGGUCAUCUAGUGA [Fam2.1 aminoacylation ribozyme variant] | 3.93 | 3.73 | 8.87 | 8.37 | 7.51 | 47.9
7 | AGUACCCUGGUCUUCGAGUGA [Fam2.1 aminoacylation ribozyme variant] | 3.27 | 3.54 | 5.96 | 7.11 | 5.41 | 31.2
8 | AGUCAACUAGGUCAUCGGGUG [Fam2.2 aminoacylation ribozyme variant] | 4.95 | 5.91 | 8.39 | 9.37 | 7.24 | 49.9
9 | AGUCACCUACGUCAUCGGGUG [Fam2.2 aminoacylation ribozyme variant] | 4.21 | 3.49 | 6.83 | 5.27 | 4.95 | 32.4
10 | AGUCACCUAGCUCAUCGGGUG [Fam2.2 aminoacylation ribozyme variant] | 3.12 | 2.6 | 2.79 | 2.81 | 2.42 | 13.9
11 | AGUCACCUAGGCCAUCGGGUG [Fam2.2 aminoacylation ribozyme variant] | 3.96 | 3.31 | 3.53 | 5.32 | 3.86 | 25
12 | AGUCACCUAGGGCAUCGGGUG [Fam2.2 aminoacylation ribozyme variant] | 3.45 | 4.43 | 4.67 | 6.69 | 3.71 | 34.4
13 | AGUCACCUAGGUAAUCGGGUG [Fam2.2 aminoacylation ribozyme variant] | 2.75 | 3.27 | 3.37 | 3.64 | 3.4 | 25.4
14 | AGUCACCUAGGUCAGCGGGUG [Fam2.2 aminoacylation ribozyme variant] | 3.77 | 4.2 | 5.54 | 5.59 | 4.31 | 39.5
15 | AGUCCCCUAGGUCAUCGGGUG [Fam2.2 aminoacylation ribozyme variant] | 7.97 | 8.61 | 16.9 | 11.4 | 12 | 93.9
16 | AUAACCCAGGUCAUCGAGUGA [Fam2.1 aminoacylation ribozyme variant] | 2.95 | 2.67 | 4.72 | 6.13 | 5.5 | 19.3
17 | AUAACCCGGGUCAUCGAGUGA [Fam2.1 aminoacylation ribozyme variant] | 3.29 | 3.78 | 8.98 | 7.61 | 6.42 | 45.7
18 | AUAACCCUCGUCAUCGAGUGA [Fam2.1 aminoacylation ribozyme variant] | 2.13 | 1.89 | 3.59 | 3.79 | 3.43 | 10.7
19 | AUAACCCUGGGCAUCGAGUGA [Fam2.1 aminoacylation ribozyme variant] | 2.59 | 3 | 6 | 6.57 | 5.93 | 33.7
20 | AUAACCCUGGUCACCGAGUGA [Fam2.1 aminoacylation ribozyme variant] | 4.06 | 4.78 | 9.68 | 10.2 | 8.82 | 44
21 | AUAACCCUGGUCAUCGAGUGA [Fam2.1 aminoacylation ribozyme variant] | 8.59 | 8.43 | 18.8 | 18.7 | 19.7 | 69.1
22 | AUAACCCUGGUGAUCGAGUGA [Fam2.1 aminoacylation ribozyme variant] | 3.03 | 3.03 | 6.37 | 7.08 | 6.53 | 36.3
23 | AUAACCCUGUUCAUCGAGUGA [Fam2.1 aminoacylation ribozyme variant] | 2.18 | 2.21 | 3.97 | 4.29 | 3.8 | 12.6
24 | AUACACCAAGGUCAUCGGGUG [Fam2.2 aminoacylation ribozyme variant] | 3.5 | 4.48 | 6.13 | 6.72 | 4.18 | 42.2
25 | AUACACCUAGGUCAUCGCGUG [Fam2.2 aminoacylation ribozyme variant] | 5.01 | 4.68 | 10.4 | 8.07 | 8.65 | 69.7
26 | AUACACCUAGGUCAUCGGGUA [Fam2.2 aminoacylation ribozyme variant] | 4.43 | 4.01 | 6.85 | 5.56 | 5.4 | 8.32
